The values below come from publication PMC4072346.

Substrate in the series: O=[N+]([O-])c1ccc(OP(=O)(O)O)cc1
Put plainly: purified protein. Type of series: biochemical, Homo sapiens. The note with it: pH 7.5.

B1: PHLPP2 (Homo sapiens) (protein)
chain: SHGLAEMAGQRNKLCVSALAMDSFAEGVGAVYGMFDGDRNEELPRLLQCTMADVLLEEVQQSTNDTVFMANTFLVSHRKLGMAGQKLGSSALLCYIRPDTADPASSFSLTVANVGTCQAVLCRGGKPVPLSKVFSLEQDPEEAQRVKDQKAIITEDNKVNGVTCCTRMLGCTYLYPWILPKPHISSTPLTIQDELLILGNKALWEHLSYTEAVNAVRHVQDPLAAAKKLCTLAQSYGCQDNVGAMVVYL
As for B1, the Km result is “(1.3 ± 0.2) × 10^–3 M”; the catalytic constant (kcat) (usually the maximal rate divided by the concentration of active sites) is 0.37 ± 0.08 s⁻¹; the specificity constant (kcat/Km) (as a rule, the turnover number divided by the Michaelis constant) is 285 ± 9 M⁻¹ s⁻¹.

B2: PHLPP1 (Homo sapiens) (protein)
chain: PRLVLDHKTLELLNNIRCFKIDQPSTGDASGAPAVWSHGYTEASGVKNKLCVAALSVNNFCDNREALYGVFDGDRNVEVPYLLQCTMSDILAEELQKTKNEEEYMVNTFIVMQRKLGTAGQKLGGAAVLCHIKHDPVDPGGSFTLTSANVGKCQTVLCRNGKPLPLSRSYIMSCEEELKRIKQHKAIITEDGKVNGVTESTRILGYTFLHPSVVPRPHVQSVLLTPQDEFFILGSKGLWDSLSVEEAVEAVRNVPDALAAAKKLCTLAQSYGCHDSISAVVVQLSVTEDSFCCCELSAGGAVPPPSPGIFPPSVNMVIKDRPSDGLGVPSSSSGMASEISSELSTSEMSSEVGSTASDEPPPGA
B2: the Km entry was “(2.1 ± 0.2) × 10^–3 M”, the kcat turned out to be 0.0018 ± 0.0003 s⁻¹ and the kcat/Km is 0.9 ± 0.2 M⁻¹ s⁻¹.
